Measurements from patent US7166764B2, “Noc2 knockout mouse” (JCR Pharmaceuticals Co., Ltd., priority 2004, dated 2007).
Changes are numbered by the printed parent chain.

B1: Noc2: full-length wild type Noc2 expressed as GST-fusion protein (protein)
chain: MADTIFSSGNDQWVCPNDRQLALRAKLQTGWSVHTYQTEKQRRSQCLSPGELEIILQVIQRAERLDILEQQRIGRLVERLETMQRNVMGNGLSQCLLCGEVLGFLGSSSVFCKDCRKKVCTKCGIEASPGQKRPLWLCKICSEQREVWKRSGAWFYKGLPKYILPLKTPGRADDPHFRPLPVEPTETQPPSAETSRVYTWARGRVVSSDSDSDSDLSSSSLEDRPLPSGVKGTKGDKPRGDSGASMESPRLGPARPPSHLSGSQSSLGSEAGTGATEPQGGTPAQPEPRVPGKRHTWATPRY
modifications: left off: a dimerising Fc or GST
notes: full-length wild type Noc2 expressed as GST-fusion protein
B2: Noc2AAA: mutant Noc2, Trp-Phe-Tyr (residues 154–156) replaced with three alanine residues, GST-fusion protein (protein)
chain: B1 chain with W154A, F155A, Y156A
B3: cholecystokinin (peptide, UniProt P06307 21-115, looked up)
Cholecystokinin: QPVPPADPAGSGLQRAEEAPRRQLRVSQRTDGESRAHLGALLARYIQQARKAPSGRMSIVKNLQNLDPSHRISDRDYMGWMDFGRRSAEEYEYPS
modifications: Cholecystokinin

Experiments:
[1] = test system: pancreatic acinar cells; assay: Amylase secretion from isolated pancreatic acinar cells; assay type: cell-based, mouse; details: 30 pM CCK or 1 μM carbachol, n=12, means±s.e.m.
Description: Pancreatic acini were prepared by collagenase digestion method. Amylase secretion experiments were performed according to Ohnishi et al. (28) with slight modifications. Briefly, isolated acini were suspended in an incubation buffer [consisting of 10 mM HEPES (pH 7.4), 127 mM NaCl, 4.7 mM KCl, 0.6 mM MgCl2, 1.3 mM CaCl2, 0.6 mM Na2HPO4, 2.0 mg/ml glucose, Eagle's MEM amino acids supplement, 2 mM L-glutamine, 1% BSA, 0.01% soybean trypsin inhibiter] as previously described (28) and preincubated at 37° C. for 30 minutes. After preincubation, the acini were centrifuged, resuspended in fresh incubation buffer, and incubated at 37° C. in the presence or absence of 30 pM CCK or 1 μM carbachol. Amylase released into the supernatant during incubation was quantified using Amylase B-test WAKO (WAKO PURE CHEMICAL INDUSTRIES). Amylase secretion was normalized as the amount released into the medium relative to the total amylase content in the pancreatic acinar cells (expressed as % amylase release).

[2] = target: T1, Rab5A (Homo sapiens, UniProt P20339); assay: In vitro binding assay (cosedimentation, GST-Noc2 on glutathione beads); details: lysates of COS-1 cells transfected with FLAG-tagged Rab5; GDP-βS or GTP-γS
T1 construct: Full-length Rab3A, B, C and D and Rab5 cDNAs were subcloned into pFLAG-CMV-2 (SIGMA); expressed in transfected cells; host or cells: COS-1 cells (lysate)
T1 sequence (P20339 1-215): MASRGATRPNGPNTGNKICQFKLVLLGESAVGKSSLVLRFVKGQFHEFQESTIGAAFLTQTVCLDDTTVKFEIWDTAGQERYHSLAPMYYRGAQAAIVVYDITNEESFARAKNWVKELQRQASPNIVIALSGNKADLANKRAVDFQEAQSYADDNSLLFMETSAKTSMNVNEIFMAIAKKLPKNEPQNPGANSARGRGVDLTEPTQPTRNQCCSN
Description: Wild type Noc2 and mutant Noc2 (Noc2AAA), both full-length, were expressed as GST-fusion proteins and purified according to the manufacturer's instructions (AMERSHAM). Full-length Rab3A, B, C and D and Rab5 cDNAs were subcloned into pFLAG-CMV-2 (SIGMA). For cosedimentation assays, COS-1 cells were transfected with each of the plasmids using LipofectAMINE (INVITROGEN). Following the transfection, the cells were sonicated in a buffer [20 mM HEPES, pH 7.4, 200 mM NaCl, 1 mM dithiothreitol, 5 mM MgCl2, 1 mM ATP and 0.26% (v/v) CHAPS]. In vitro binding assay was performed as previously described (15). Briefly, lysates from COS-1 cells transfected with FLAG-tagged Rab3 isoforms and Rab5 were assessed for binding to GST-Noc2 immobilized on glutathione beads in the presence of GDP-βS or GTP-γS. Rab3 isoforms and Rab5 and GST-Noc2 were detected by immunoblotting with anti-Flag antibody or immunoglobulin G-purified antibody against rat Noc2.

[3] = test system: Rab3 isoforms; assay: as above; details: lysates of COS-1 cells transfected with FLAG-tagged Rab3 isoforms; GDP-βS or GTP-γS
Description: Pancreatic islets were isolated by collagenase digestion method in a conventional manner (27). The pancreatic islets were cultured for 48 hours in RPMI1640 medium in the presence or absence of PTX (30 ng/ml). Batch incubation was performed as previously described (27). Insulin released into the medium was measured by radioimmunoassay (EIKEN CHEMICAL). Recombinant adenoviruses carrying either LacZ, Noc2 wt (wild-type), or Noc2AAA (mutant) cDNA were generated according to the manufacturer's instructions (STRATAGENE). For preparation of Noc2AAA, Trp-Phe-Tyr (residues 154–156) were replaced with three alanine residues as previously described (24). […] Lysate from COS-1 cells transfected with a Flag-tagged Rab3 isoforms was evaluated for binding to the GST-Noc2 wild-type (Noc2 wt) or the GST-Noc2 mutant (Noc2AAA) in the presence of GTP-γS.
Wild type Noc2 and mutant Noc2 (Noc2AAA), both full-length, were expressed as GST-fusion proteins and purified according to the manufacturer's instructions (AMERSHAM). […] Briefly, lysates from COS-1 cells transfected with FLAG-tagged Rab3 isoforms and Rab5 were assessed for binding to GST-Noc2 immobilized on glutathione beads in the presence of GDP-βS or GTP-γS. Rab3 isoforms and Rab5 and GST-Noc2 were detected by immunoblotting with anti-Flag antibody or immunoglobulin G-purified antibody against rat Noc2.

[4] = pancreatic acini of Noc2−/− mice, basal level 4.9±0.5%
[5] = pancreatic acini of wild-type mice, basal level 5.6±0.9%

| Molecule | % amylase released of total amylase content [1, 4] [%] | % amylase released of total amylase content [1, 5] [%] | binding to Rab5A [2] | binding to Rab3 isoforms (Rab3A–D) [3] |
| --- | --- | --- | --- | --- |
| C[N+](C)(C)CCOC(N)=O [carbachol, reference compound] | 6.2±0.5 | 15.6±0.8 |  |  |
| B1 |  |  | not to Rab5A | binds to all of the isoforms of Rab3 in a GTP-dependent manner |
| B2 |  |  |  | does not bind any isoform of Rab3 |
| B3 | 5.8±0.5 | 13.0±0.7 |  |  |
